# Laboratory results reported in publication PMC5995911, “Gas41 links histone acetylation to H2A.Z deposition and maintenance of embryonic stem cell identity” (Cell Discovery, 2018).
# How the values were obtained:
# J1 mESCs = assay: RA-induced differentiation, expression of Tip60/p400 and SRCAP complex genes (qRT-PCR, Western blot); type: cell-based, mouse; settings: 1 μM RA, ES cell medium without LIF; vs day 0; technical duplicate
# Procedure: mESCs were plated in 96-well ultra-low attachment round bottom plates (Corning) at 1000 cells/well in ES cell medium without LIF. Media was changed every other day before day 8 and daily thereafter. For RA treatment, mESCs seeded on gelatin-coated dishes were treated with 1 μM RA in ES cell medium without LIF. Undifferentiated mESCs cultured with LIF in gelatin-coated dishes, are considered as EB and RA day 0.
# Total RNA extraction, reverse transcription and quantitative real-time PCR (qPCR) were performed as previously described. Gene expression values were calculated by normalization to Actb using the comparative CT method. Primers used in the study are listed in Supplementary Table S6.
# [1] = molecular target: Gas41 YEATS mutants with residues H71, S73, Y74 and F96 replaced with alanine; assay: ITC; GAS41 YEATS (15-159) WT or mutants titrated with H3(1-34)K27ac peptide; 15 °C; 20 mM Tris-HCl pH 7.5, 500 mM NaCl, 5% glycerol, 2 mM β-mercaptoethanol; One Set of Binding Sites model
# [2] = molecular target: Gas41 YEATS domain (aa 15–159) S73A (human) (UniProt O95619); assay: as above
# [3] = molecular target: Gas41 YEATS domain (aa 15–159) with E95 mutated (human) (UniProt O95619); assay: as above
# [4] = molecular target: Gas41 YEATS domain (aa 15–159) Y74A (human) (UniProt O95619); assay: as above
Molecule,change in gene expression of Tip60/p400 and SRCAP complex components (J1 mESCs),fold reduction of binding against wild type [1] [fold],fold reduction of binding against wild type [2] [fold],fold reduction of binding against wild type [3] [fold],fold reduction of binding against wild type [4] [fold]
"CC1=C(/C=C/C(C)=C/C=C/C(C)=C/C(=O)O)C(C)(C)CCC1 [RA, retinoic acid]",almost all the genes were downregulated,,,,
H3 (1–34) K27ac peptide (from UniProt P68431 2-35),,94,14,7,69
